Experimental data taken from patent publication US20200040059A1.

Each substance was assayed against PD-1 (human) (assay: cell-based or functional assay).

Fold increase over wildtype PD-L2 IgV-Fc, MLR IFN gamma [fold] | IFN gamma levels pg/mL, MLR [pg/mL] | Substance
0.78 | 1080 | PD-L2 IgV-Fc I13V, H15Q, T47A, H69L, R76G, V89D (Fc fusion)
1.11 | 1530 | PD-L2 IgV-Fc I13V, H15Q, R76G, I85F (Fc fusion)
0.82 | 1120 | PD-L2 IgV-Fc I13V, H15Q, V89D (Fc fusion)
– | 1380 | Wild Type PD-L2 IgV (Fc fusion)
0.79 | 1080 | PD-L2 IgV-Fc H15Q, Q82R, V89D (Fc fusion)
1.07 | 1470 | PD-L2 IgV-Fc I13V, H15Q, L33F, T47A, Q82R, V89D (Fc fusion)
1.24 | 1700 | PD-L2 IgV-Fc I13V, H15Q, T47A, Q82R (Fc fusion)
1.1 | 1510 | PD-L2 IgV-Fc E59G, Q82R (Fc fusion)

What follows are substances tested against CD112R, expressed on transfected cells (human) (UniProt Q6DKI7) (assay: flow cytometry on transfected cells).
CD112R, expressed on transfected cells (human), sequence (Q6DKI7 whole entry): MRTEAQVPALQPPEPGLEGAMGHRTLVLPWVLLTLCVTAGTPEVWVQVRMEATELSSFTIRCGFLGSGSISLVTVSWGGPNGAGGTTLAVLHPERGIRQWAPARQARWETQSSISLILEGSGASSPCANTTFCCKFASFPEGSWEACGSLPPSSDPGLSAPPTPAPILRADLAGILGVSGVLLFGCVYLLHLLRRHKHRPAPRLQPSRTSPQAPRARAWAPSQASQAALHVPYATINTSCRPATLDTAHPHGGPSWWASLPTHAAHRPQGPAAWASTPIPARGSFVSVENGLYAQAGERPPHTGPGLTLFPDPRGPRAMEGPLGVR

Substance | MFI at 100 nM
CD155 variant S42C IgV-Fc (from UniProt P15151 24-139) (Fc fusion) | 1680
CD155 variant S42N, S52E, V57L, L104E IgV-Fc (from UniProt P15151 24-139) (Fc fusion) | 1690
CD155 variant S42A, S52Q, L104Q, G111R IgV-Fc (from UniProt P15151 24-139) (Fc fusion) | 1890
CD155 variant S52M IgV-Fc (from UniProt P15151 24-139) (Fc fusion) | 1550
CD155 variant S42L, S52L, Q62F, L104Q IgV-Fc (from UniProt P15151 24-139) (Fc fusion) | 1730
Wildtype CD155 ECD-Fc (from UniProt P15151 21-343) (Fc fusion) | 1780
CD155 variant S42L, S52Q, L104E IgV-Fc (from UniProt P15151 24-139) (Fc fusion) | 1750
CD155 variant S52M, V57L IgV-Fc (from UniProt P15151 24-139) (Fc fusion) | 2010
CD155 variant S42G, S52Q, L104E, G111R IgV-Fc (from UniProt P15151 24-139) (Fc fusion) | 1710
CD155 variant S42Q IgV-Fc (from UniProt P15151 24-139) (Fc fusion) | 1910
CD155 variant S52M, Q62Y IgV-Fc (from UniProt P15151 24-139) (Fc fusion) | 1770
CD155 variant S42W, S52R, Q62Y, L104Q IgV-Fc (from UniProt P15151 24-139) (Fc fusion) | 1820
CD155 variant S42V, S52E IgV-Fc (from UniProt P15151 24-139) (Fc fusion) | 1810
CD155 variant S42A, L104Q, G111R IgV-Fc (from UniProt P15151 24-139) (Fc fusion) | 1820

Results, then the substance that gave them:

MFI at 100 nM | Substance
1700 | CD155 variant Q62F, L104E, G111R IgV-Fc (from UniProt P15151 24-139) (Fc fusion)
2070 | CD155 variant S52W, L104E IgV-Fc (from UniProt P15151 24-139) (Fc fusion)
1660 | CD155 variant S42C, S52L IgV-Fc (from UniProt P15151 24-139) (Fc fusion)
1590 | CD155 variant S42C, S52M, Q62F IgV-Fc (from UniProt P15151 24-139) (Fc fusion)
1730 | CD155 variant S42A IgV-Fc (from UniProt P15151 24-139) (Fc fusion)
1700 | CD155 variant S42N IgV-Fc (from UniProt P15151 24-139) (Fc fusion)
1660 | CD155 variant S42G, S52L, Q62F, L104Q IgV-Fc (from UniProt P15151 24-139) (Fc fusion)
1840 | CD155 variant S42W, S52Q, V57L, Q62Y IgV-Fc (from UniProt P15151 24-139) (Fc fusion)
1740 | CD155 variant S42L IgV-Fc (from UniProt P15151 24-139) (Fc fusion)
2470 | CD155 variant G111R IgV-Fc (from UniProt P15151 24-139) (Fc fusion)

What follows are substances tested against CD96, expressed on transfected cells (UniProt P40200) (assay: flow cytometry on transfected cells).

Substance | MFI at 100 nM
CD155 variant S42C IgV-Fc (from UniProt P15151 24-139) (Fc fusion) | 1590
CD155 variant S42N, S52E, V57L, L104E IgV-Fc (from UniProt P15151 24-139) (Fc fusion) | 1540
CD155 variant S42A, S52Q, L104Q, G111R IgV-Fc (from UniProt P15151 24-139) (Fc fusion) | 1640
CD155 variant S42L, S52L, Q62F, L104Q IgV-Fc (from UniProt P15151 24-139) (Fc fusion) | 2320
Wildtype CD155 ECD-Fc (from UniProt P15151 21-343) (Fc fusion) | 99000
CD155 variant S42L, S52Q, L104E IgV-Fc (from UniProt P15151 24-139) (Fc fusion) | 1700
CD155 variant S52M, V57L IgV-Fc (from UniProt P15151 24-139) (Fc fusion) | 1860
CD155 variant S42G, S52Q, L104E, G111R IgV-Fc (from UniProt P15151 24-139) (Fc fusion) | 1710
CD155 variant S42Q IgV-Fc (from UniProt P15151 24-139) (Fc fusion) | 2140
CD155 variant S52M, Q62Y IgV-Fc (from UniProt P15151 24-139) (Fc fusion) | 1650
CD155 variant S42V, S52E IgV-Fc (from UniProt P15151 24-139) (Fc fusion) | 2530
CD155 variant S42A, L104Q, G111R IgV-Fc (from UniProt P15151 24-139) (Fc fusion) | 1700

The remaining lines, values ahead:

MFI at 100 nM | Substance
1520 | CD155 variant Q62F, L104E, G111R IgV-Fc (from UniProt P15151 24-139) (Fc fusion)
1630 | CD155 variant S52W, L104E IgV-Fc (from UniProt P15151 24-139) (Fc fusion)
1710 | CD155 variant S52W IgV-Fc (from UniProt P15151 24-139) (Fc fusion)
1480 | CD155 variant S42C, S52L IgV-Fc (from UniProt P15151 24-139) (Fc fusion)
1480 | CD155 variant S42C, S52M, Q62F IgV-Fc (from UniProt P15151 24-139) (Fc fusion)
1620 | CD155 variant S42A IgV-Fc (from UniProt P15151 24-139) (Fc fusion)
1690 | CD155 variant S42N IgV-Fc (from UniProt P15151 24-139) (Fc fusion)
1640 | CD155 variant S42G, S52L, Q62F, L104Q IgV-Fc (from UniProt P15151 24-139) (Fc fusion)
1700 | CD155 variant S42W, S52Q, V57L, Q62Y IgV-Fc (from UniProt P15151 24-139) (Fc fusion)
1620 | CD155 variant S42L IgV-Fc (from UniProt P15151 24-139) (Fc fusion)
3320 | CD155 variant G111R IgV-Fc (from UniProt P15151 24-139) (Fc fusion)

What follows are substances tested against T1, human CD226, full length, expressed on transfected cells (human) (UniProt Q15762) (assay: flow cytometry on transfected cells).
T1 sequence: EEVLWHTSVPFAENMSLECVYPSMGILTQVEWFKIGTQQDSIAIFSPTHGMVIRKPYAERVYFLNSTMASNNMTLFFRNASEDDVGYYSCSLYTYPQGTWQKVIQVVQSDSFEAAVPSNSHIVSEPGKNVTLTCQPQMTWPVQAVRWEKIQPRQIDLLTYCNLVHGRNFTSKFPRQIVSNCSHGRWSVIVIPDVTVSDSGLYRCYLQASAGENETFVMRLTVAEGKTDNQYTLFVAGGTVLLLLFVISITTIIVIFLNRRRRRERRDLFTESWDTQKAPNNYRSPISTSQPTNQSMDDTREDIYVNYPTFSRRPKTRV

Substance | MFI at 100 nM
CD155 variant S42C IgV-Fc (from UniProt P15151 24-139) (Fc fusion) | 2100
CD155 variant S42N, S52E, V57L, L104E IgV-Fc (from UniProt P15151 24-139) (Fc fusion) | 1740
CD155 variant S42A, S52Q, L104Q, G111R IgV-Fc (from UniProt P15151 24-139) (Fc fusion) | 2160
CD155 variant S52M IgV-Fc (from UniProt P15151 24-139) (Fc fusion) | 1900
CD155 variant S42L, S52L, Q62F, L104Q IgV-Fc (from UniProt P15151 24-139) (Fc fusion) | 2640
CD155 variant S42L, S52Q, L104E IgV-Fc (from UniProt P15151 24-139) (Fc fusion) | 6470
CD155 variant S52M, V57L IgV-Fc (from UniProt P15151 24-139) (Fc fusion) | 2430
CD155 variant S42G, S52Q, L104E, G111R IgV-Fc (from UniProt P15151 24-139) (Fc fusion) | 2020
CD155 variant S42Q IgV-Fc (from UniProt P15151 24-139) (Fc fusion) | 2230
CD155 variant S52M, Q62Y IgV-Fc (from UniProt P15151 24-139) (Fc fusion) | 2000
CD155 variant S42W, S52R, Q62Y, L104Q IgV-Fc (from UniProt P15151 24-139) (Fc fusion) | 2300
CD155 variant S42V, S52E IgV-Fc (from UniProt P15151 24-139) (Fc fusion) | 2270
CD155 variant S42A, L104Q, G111R IgV-Fc (from UniProt P15151 24-139) (Fc fusion) | 1900

The remaining lines, values ahead:

MFI at 100 nM | Substance
2040 | CD155 variant Q62F, L104E, G111R IgV-Fc (from UniProt P15151 24-139) (Fc fusion)
1910 | CD155 variant S52W, L104E IgV-Fc (from UniProt P15151 24-139) (Fc fusion)
2040 | CD155 variant S52W IgV-Fc (from UniProt P15151 24-139) (Fc fusion)
2150 | CD155 variant S42C, S52L IgV-Fc (from UniProt P15151 24-139) (Fc fusion)
2080 | CD155 variant S42C, S52M, Q62F IgV-Fc (from UniProt P15151 24-139) (Fc fusion)
2190 | CD155 variant S42A IgV-Fc (from UniProt P15151 24-139) (Fc fusion)
1910 | CD155 variant S42N IgV-Fc (from UniProt P15151 24-139) (Fc fusion)
2160 | CD155 variant S42G, S52L, Q62F, L104Q IgV-Fc (from UniProt P15151 24-139) (Fc fusion)
2140 | CD155 variant S42W, S52Q, V57L, Q62Y IgV-Fc (from UniProt P15151 24-139) (Fc fusion)
2190 | CD155 variant S42L IgV-Fc (from UniProt P15151 24-139) (Fc fusion)
2790 | CD155 variant G111R IgV-Fc (from UniProt P15151 24-139) (Fc fusion)

Each substance was assayed against CD80 (Homo sapiens (Human)) (UniProt P33681) (assay: flow cytometry, cells expressing CD80).
CD80 (Homo sapiens (Human)), sequence (P33681 35-288 limits assumed): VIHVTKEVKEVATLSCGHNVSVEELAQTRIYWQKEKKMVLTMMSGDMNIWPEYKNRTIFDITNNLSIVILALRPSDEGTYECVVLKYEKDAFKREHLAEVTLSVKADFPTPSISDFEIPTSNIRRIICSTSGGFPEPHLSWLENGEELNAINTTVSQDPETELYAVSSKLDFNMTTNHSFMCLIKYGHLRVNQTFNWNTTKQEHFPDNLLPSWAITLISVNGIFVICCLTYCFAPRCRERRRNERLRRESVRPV

Substance | MFI at 20 nM
variant PD-L1 ECD-Fc E54G, M97L, S99G (from UniProt Q9NZQ7 19-238) (Fc fusion) | 51900
variant PD-L1 ECD-Fc V129D, H202Q (from UniProt Q9NZQ7 19-238) (Fc fusion) | 219
variant PD-L1 ECD-Fc K57R, S99G (from UniProt Q9NZQ7 19-238) (Fc fusion) | 16300
variant PD-L1 ECD-Fc M18V, M97L, T176N, R195G (from UniProt Q9NZQ7 19-238) (Fc fusion) | 45300
variant PD-L1 ECD-Fc M18V, I98L, L124S, P198T, L206F (from UniProt Q9NZQ7 19-238) (Fc fusion) | 143

More lines, now with the values ahead:

MFI at 20 nM | Substance
11000 | variant PD-L1 ECD-Fc K57R, S99G, R195G (from UniProt Q9NZQ7 19-238) (Fc fusion)
150 | variant PD-L1 ECD-Fc V93E, V129D (from UniProt Q9NZQ7 19-238) (Fc fusion)
152 | variant PD-L1 ECD-Fc V129D, P198T (from UniProt Q9NZQ7 19-238) (Fc fusion)
50900 | variant PD-L1 ECD-Fc I36T, M97L, V129D (from UniProt Q9NZQ7 19-238) (Fc fusion)
142 | variant PD-L1 ECD-Fc V129D, T150A (from UniProt Q9NZQ7 19-238) (Fc fusion)
